Legend:
Bmal1 promoter = experiment: NHR-promoter luciferase screen, Bmal1 promoter; type: cell-based, mouse; settings: for Luc. act., normalized to lacZ / Normalized Luc. act., normalized to control: Bmal1 promoter, HR component without or with ligand; for mBmal1 promoter reporter activity: transcription factor +/- ligand, control = 1.00
In short: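 CV-1 cells co-transfected with 50 ng NHR (V5H6-tagged, pcDNA3.1; homodimer or RXR heterodimer), 100 ng Bmal1 promoter-luciferase and 50 ng LacZ. Luciferase was normalized to LacZ and to a no-NHR/ligand control.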

mCAR promoter = experiment: NHR-promoter luciferase screen, mCAR promoter; type: cell-based, mouse; settings: for luciferase activity normalized to lacZ activity and to a control, mCAR: mCAR promoter-luciferase, CV-1 cells, NHR +/- ligand, control = 1.00; for Luc. act., normalized to lacZ / Normalized Luc. act., normalized to control: mCAR promoter, HR/ligand component
In short: (§1)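 CV-1 cells were co-transfected with 50 ng NHR (homodimer or NHR/RXR heterodimer), 100 ng promoter-luciferase construct and 50 ng LacZ. Luciferase was normalized to LacZ and to a no-NHR/no-ligand control.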

hPPARg1 promoter = experiment: NHR-promoter luciferase screen, hPPARg1 promoter; type: cell-based, human; settings: for Luc. act., normalized to lacZ / Normalized Luc. act., normalized to control: PPARG1 promoter, hormone receptor with or without its ligand; for Normalized Luc. act., normalized to control: relative to control; for Results of assays of transcription factor (+/- ligand) with hPPARg1: Table 6d, luciferase activity relative to control (control = 1.00)
In short: as §1

mPer1 promoter = experiment: NHR-promoter luciferase screen, mPer1 promoter; type: cell-based, mouse; settings: for Luc. act., normalized to lacZ / Normalized Luc. act., normalized to control: Per1 promoter reporter, co-transfected HR, with or without its ligand; for Normalized Luc. act., normalized to control: relative to control; for luciferase activity normalized to lacZ activity and to a control, mPer1: mPer1 promoter-luciferase, CV-1 cells, NHR +/- ligand, control = 1.00
In short: as §1

mUCP3 promoter = experiment: NHR-promoter luciferase screen, mUCP3 promoter; type: cell-based, mouse; settings: for Normalized Luc. act., normalized to control / Luc. act., normalized to lacZ: mUCP3 promoter reporter; for Normalized Luc. act., normalized to control: HR without or with its ligand, relative to control; for Luc. act., normalized to lacZ: hormone receptor (HR) without or with its ligand; for mUCP3 promoter reporter activity: transcription factor +/- ligand, control = 1.00
In short: as §1

| Molecule | Luc. act., normalized to lacZ (Bmal1 promoter) | Normalized Luc. act., normalized to control (Bmal1 promoter) | mBmal1 promoter reporter activity (Bmal1 promoter) | luciferase activity normalized to lacZ activity and to a control, mCAR (mCAR promoter) | Luc. act., normalized to lacZ (mCAR promoter) | Normalized Luc. act., normalized to control (mCAR promoter) | Luc. act., normalized to lacZ (hPPARg1 promoter) | Normalized Luc. act., normalized to control (hPPARg1 promoter) | Results of assays of transcription factor (+/- ligand) with hPPARg1 (hPPARg1 promoter) | Luc. act., normalized to lacZ (mPer1 promoter) | Normalized Luc. act., normalized to control (mPer1 promoter) | luciferase activity normalized to lacZ activity and to a control, mPer1 (mPer1 promoter) | Normalized Luc. act., normalized to control (mUCP3 promoter) | Luc. act., normalized to lacZ (mUCP3 promoter) | mUCP3 promoter reporter activity (mUCP3 promoter) |
| --- | --- | --- | --- | --- | --- | --- | --- | --- | --- | --- | --- | --- | --- | --- | --- |
| TR2: Testicular Orphan Nuclear Receptor 2 (NR2C1), cDNA driver (protein, UniProt P13056 1-603, looked up) Nuclear receptor subfamily 2 …: MATIEEIAHQIIEQQMGEIVTEQQTGQKIQIVTALDHNTQGKQFILTNHDGSTPSKVILARQDSTPGKVFLTTPDAAGVNQLFFTTPDLSAQHLQLLTDNSPDQGPNKVFDLCVVCGDKASGRHYGAVTCEGCKGFFKRSIRKNLVYSCRGSKDCIINKHHRNRCQYCRLQRCIAFGMKQDSVQCERKPIEVSREKSSNCAASTEKIYIRKDLRSPLTATPTFVTDSESTRSTGLLDSGMFMNIHPSGVKTESAVLMTSDKAESCQGDLSTLANVVTSLANLGKTKDLSQNSNEMSMIESLSNDDTSLCEFQEMQTNGDVSRAFDTLAKALNPGESTACQSSVAGMEGSVHLITGDSSINYTEKEGPLLSDSHVAFRLTMPSPMPEYLNVHYIGESASRLLFLSMHWALSIPSFQALGQENSISLVKAYWNELFTLGLAQCWQVMNVATILATFVNCLHNSLQQDKMSTERRKLLMEHIFKLQEFCNSMVKLCIDGYEYAYLKAIVLFSPDHPSLENMEQIEKFQEKAYVEFQDYITKTYPDDTYRLSRLLLRLPALRLMNATITEELFFKGLIGNIRIDSVIPHILKMEPADYNSQIIGHSI | 10.8 | 0.7 | 0.69 | 0.81 | 31.0 | 0.8 | 45.5 | 0.7 | 0.66 | 103.1 | 0.7 | 0.72 | 2.0 | 1.4 | 2.01 |
| Erb: Estrogen Receptor β (NR3A2, ERb), cDNA driver (protein, UniProt Q92731 1-530, looked up) Estrogen receptor beta: MDIKNSPSSLNSPSSYNCSQSILPLEHGSIYIPSSYVDSHHEYPAMTFYSPAVMNYSIPSNVTNLEGGPGRQTTSPNVLWPTPGHLSPLVVHRQLSHLYAEPQKSPWCEARSLEHTLPVNRETLKRKVSGNRCASPVTGPGSKRDAHFCAVCSDYASGYHYGVWSCEGCKAFFKRSIQGHNDYICPATNQCTIDKNRRKSCQACRLRKCYEVGMVKCGSRRERCGYRLVRRQRSADEQLHCAGKAKRSGGHAPRVRELLLDALSPEQLVLTLLEAEPPHVLISRPSAPFTEASMMMSLTKLADKELVHMISWAKKIPGFVELSLFDQVRLLESCWMEVLMMGLMWRSIDHPGKLIFAPDLVLDRDEGKCVEGILEIFDMLLATTSRFRELKLQHKEYLCVKAMILLNSSMYPLVTATQDADSSRKLAHLLNAVTDALVWVIAKSGISSQQQSMRLANLLMLLSHVRHASNKGMEHLLNMKCKNVVPVYDLLLEMLNAHVLRGCKSSITGSECSPAEDSKSKEGSQNPQSQ | 17.0 | 1.1 | 1.09 | 1.18 | 44.8 | 1.2 | 45.3 | 0.7 | 0.66 | 79.1 | 0.5 | 0.55 | 1.3 | 0.9 | 1.28 |
| ERR3: Estrogen Related Receptor γ (NR3B3, ERRg), cDNA driver (protein, UniProt P62508 1-458, looked up) Estrogen-related receptor …: MDSVELCLPESFSLHYEEELLCRMSNKDRHIDSSCSSFIKTEPSSPASLTDSVNHHSPGGSSDASGSYSSTMNGHQNGLDSPPLYPSAPILGGSGPVRKLYDDCSSTIVEDPQTKCEYMLNSMPKRLCLVCGDIASGYHYGVASCEACKAFFKRTIQGNIEYSCPATNECEITKRRRKSCQACRFMKCLKVGMLKEGVRLDRVRGGRQKYKRRIDAENSPYLNPQLVQPAKKPYNKIVSHLLVAEPEKIYAMPDPTVPDSDIKALTTLCDLADRELVVIIGWAKHIPGFSTLSLADQMSLLQSAWMEILILGVVYRSLSFEDELVYADDYIMDEDQSKLAGLLDLNNAILQLVKKYKSMKLEKEEFVTLKAIALANSDSMHIEDVEAVQKLQDVLHEALQDYEAGQHMEDPRRAGKMLMTLPLLRQTSTKAVQHFYNIKLEGKVPMHKLFLEMLEAKV | 9.5 | 0.6 | 0.61 | 2.87 | 109.5 | 2.9 | 63.7 | 0.9 | 0.92 | 226.8 | 1.6 | 1.58 | 3.1 | 2.1 | 3.06 |
| TR4: Testicular Orphan Nuclear Receptor 4 (NR2C2), cDNA driver (protein, UniProt P49116 1-596, looked up) Nuclear receptor subfamily 2 …: MTSPSPRIQIISTDSAVASPQRIQIVTDQQTGQKIQIVTAVDASGSPKQQFILTSPDGAGTGKVILASPETSSAKQLIFTTSDNLVPGRIQIVTDSASVERLLGKTDVQRPQVVEYCVVCGDKASGRHYGAVSCEGCKGFFKRSVRKNLTYSCRSNQDCIINKHHRNRCQFCRLKKCLEMGMKMESVQSERKPFDVQREKPSNCAASTEKIYIRKDLRSPLIATPTFVADKDGARQTGLLDPGMLVNIQQPLIREDGTVLLATDSKAETSQGALGTLANVVTSLANLSESLNNGDTSEIQPEDQSASEITRAFDTLAKALNTTDSSSSPSLADGIDTSGGGSIHVISRDQSTPIIEVEGPLLSDTHVTFKLTMPSPMPEYLNVHYICESASRLLFLSMHWARSIPAFQALGQDCNTSLVRACWNELFTLGLAQCAQVMSLSTILAAIVNHLQNSIQEDKLSGDRIKQVMEHIWKLQEFCNSMAKLDIDGYEYAYLKAIVLFSPDHPGLTSTSQIEKFQEKAQMELQDYVQKTYSEDTYRLARILVRLPALRLMSSNITEELFFTGLIGNVSIDSIIPYILKMETAEYNGQITGASL | 22.5 | 1.4 | 1.44 | 2.52 | 96.2 | 2.5 | 66.2 | 1.0 | 0.96 | 225.6 | 1.6 | 1.57 | 3.2 | 2.2 | 3.19 |
| ERR2: Estrogen Related Receptor β (NR3B2, ERRb), cDNA driver (protein, UniProt O95718 1-433, looked up) Steroid hormone receptor ERR2: MSSDDRHLGSSCGSFIKTEPSSPSSGIDALSHHSPSGSSDASGGFGLALGTHANGLDSPPMFAGAGLGGTPCRKSYEDCASGIMEDSAIKCEYMLNAIPKRLCLVCGDIASGYHYGVASCEACKAFFKRTIQGNIEYSCPATNECEITKRRRKSCQACRFMKCLKVGMLKEGVRLDRVRGGRQKYKRRLDSESSPYLSLQISPPAKKPLTKIVSYLLVAEPDKLYAMPPPGMPEGDIKALTTLCDLADRELVVIIGWAKHIPGFSSLSLGDQMSLLQSAWMEILILGIVYRSLPYDDKLVYAEDYIMDEEHSRLAGLLELYRAILQLVRRYKKLKVEKEEFVTLKALALANSDSMYIEDLEAVQKLQDLLHEALQDYELSQRHEEPWRTGKLLLTLPLLRQTAAKAVQHFYSVKLQGKVPMHKLFLEMLEAKV | 10.6 | 0.7 | 0.68 | 0.99 | 37.8 | 1.0 | 59.1 | 0.9 | 0.86 | 328.2 | 2.3 | 2.28 | 3.3 | 2.2 | 3.32 |
| HNF4g: Hepatocyte Nuclear Factor γ (NR2A2), cDNA driver (protein, UniProt Q14541 1-408, looked up) Hepatocyte nuclear factor …: MNTTDNGVNCLCAICGDRATGKHYGASSCDGCKGFFRRSIRKSHVYSCRFSRQCVVDKDKRNQCRYCRLRKCFRAGMKKEAVQNERDRISTRRSTFDGSNIPSINTLAQAEVRSRQISVSSPGSSTDINVKKIASIGDVCESMKQQLLVLVEWAKYIPAFCELPLDDQVALLRAHAGEHLLLGATKRSMMYKDILLLGNNYVIHRNSCEVEISRVANRVLDELVRPFQEIQIDDNEYACLKAIVFFDPDAKGLSDPVKIKNMRFQVQIGLEDYINDRQYDSRGRFGELLLLLPTLQSITWQMIEQIQFVKLFGMVKIDNLLQEMLLGGASNDGSHLHHPMHPHLSQDPLTGQTILLGPMSTLVHADQISTPETPLPSPPQGSGQEQYKIAANQASVISHQHLSKQKQL | 11.5 | 0.7 | 0.73 | 1.43 | 54.5 | 1.4 | 42.1 | 0.6 | 0.61 | 116.1 | 0.8 | 0.81 | 0.8 | 0.6 | 0.84 |
